Experimental data from article PMC8158037, “Staphylococcus aureus N-terminus formylated δ-toxin tends to form amyloid fibrils, while the deformylated δ-toxin tends to form functional oligomer complexes” (Virulence, 2021).
No end group written: not given here. *: point of attachment. For = O=C*

B1: PSMα2 (secreted by S. aureus MW2) (peptide)
chain: MGIIAGIIKFIKGLIEKFTGK
notes: also called phenol-soluble modulin α2
B2: PSMα2, synthetic peptide (peptide)
chain: For-MGIIAGIIKFIKGLIEKFTGK
notes: source: synthetic peptide (Sangon Biotech, purity > 95%)
B4: PSMα3 (secreted by S. aureus MW2) (peptide)
chain: MEFVAKLFKFFKDLLGKFLGNN
notes: also called phenol-soluble modulin α3
B5: PSMα3, synthetic peptide (peptide)
chain: For-MEFVAKLFKFFKDLLGKFLGNN
notes: as for B2
B6: PSMα1, synthetic peptide (peptide)
chain: For-MGIIAGIIKVIKSLIEQFTGK
notes: as for B2
B7: PSMα1 (secreted by S. aureus MW2) (peptide)
chain: MGIIAGIIKVIKSLIEQFTGK
notes: also called phenol-soluble modulin α1

Tests used:
Test in all cases: co-IP
Conditions in all cases: both partners purified
[1] = target: T1, δ-toxin (secreted by S. aureus MW2 and its ΔPSMα strain) (Staphylococcus aureus MW2, N-terminal methionine formylated in part of the peptides (fδ-toxin) and deformylated in the rest (dfδ-toxin); Aggregate1 more than 50% fδ-toxin, Aggregate2 more than 85% dfδ-toxin)
T1 construct: also called PSMγ; δ-hemolysin

[2] = target: B4
[3] = target: B7
[4] = target: T2, N-terminus formylated δ-toxin, synthetic peptide (Staphylococcus aureus, N-formylmethionine at the N-terminus (fM))
T2 construct: also called fδ-toxin

PSMα1, synthetic peptide = target: B6
[5] = target: T3, deformylated δ-toxin, synthetic peptide (Staphylococcus aureus)
T3 construct: also called dfδ-toxin

PSMα3, synthetic peptide = target: B5
[6] = target: B1
PSMα2, synthetic peptide = target: B2

Measured: binding result

B1
binds: [1] | [2] | [3]

B2
binds: [4] | PSMα1, synthetic peptide | [5] | PSMα3, synthetic peptide

MAIVGTIIKIIKAIIDIFAK (also called phenol-soluble modulin α4) [PSMα4 (secreted by S. aureus MW2)]
binds: [6] | [1] | [2] | [3]

B3: PSMα4, synthetic peptide (peptide)
chain: For-MAIVGTIIKIIKAIIDIFAK
notes: as for B2
binds: [4] | PSMα1, synthetic peptide | [5] | PSMα3, synthetic peptide | PSMα2, synthetic peptide

B4
binds: [6] | [1] | [3]

B5
binds: [4] | PSMα1, synthetic peptide | [5] | PSMα2, synthetic peptide

B6
binds: [4] | [5] | PSMα3, synthetic peptide | PSMα2, synthetic peptide

B7
binds: [6] | [1] | [2]
